Assay results reported in patent publication US20060140870A1, “Method for assessing tumor response to cancer treatment” (General Electric Company, priority 2004, published 2006).

Experiment: Relaxivity (T1) of the contrast agent as a measure of molecular conformation
Type: physicochemical
Conditions: low for an elongated conformation, high for a globular (folded) one

| Substance | relaxivity |
| --- | --- |
| Polylysine-Gd-DTPA [Gd- DTPA polylysine] | about 8 sec.−1 mM−1 |
| albumen | about 15 sec.−1 mM−1 |
